Two molecules from publication PMC3511536, “The Interleukin 3 Gene (IL3) Contributes to Human Brain Volume Variation by Regulating Proliferation and Survival of Neural Progenitors” can be followed below.

This data set deals with SP1 (Homo sapiens, UniProt P08047 1-785). As to the kind of experiment: EMSA; 10 mM Tris-HCl pH 7.5, 1 mM MgCl2, 0.5 mM EDTA, 0.5 mM DTT, 50 mM NaCl, 50 ug/ml poly(dI-dC), 4% glycerol, 35 fmol probe, 20 min, room temperature; 6% native PAGE. The conditions noted are these: protein: recombinant; label: 3' biotin; blunt. On the technique in general: In EMSA bound probe runs differently from free probe, usually more slowly.
Chain of SP1 (P08047 whole entry): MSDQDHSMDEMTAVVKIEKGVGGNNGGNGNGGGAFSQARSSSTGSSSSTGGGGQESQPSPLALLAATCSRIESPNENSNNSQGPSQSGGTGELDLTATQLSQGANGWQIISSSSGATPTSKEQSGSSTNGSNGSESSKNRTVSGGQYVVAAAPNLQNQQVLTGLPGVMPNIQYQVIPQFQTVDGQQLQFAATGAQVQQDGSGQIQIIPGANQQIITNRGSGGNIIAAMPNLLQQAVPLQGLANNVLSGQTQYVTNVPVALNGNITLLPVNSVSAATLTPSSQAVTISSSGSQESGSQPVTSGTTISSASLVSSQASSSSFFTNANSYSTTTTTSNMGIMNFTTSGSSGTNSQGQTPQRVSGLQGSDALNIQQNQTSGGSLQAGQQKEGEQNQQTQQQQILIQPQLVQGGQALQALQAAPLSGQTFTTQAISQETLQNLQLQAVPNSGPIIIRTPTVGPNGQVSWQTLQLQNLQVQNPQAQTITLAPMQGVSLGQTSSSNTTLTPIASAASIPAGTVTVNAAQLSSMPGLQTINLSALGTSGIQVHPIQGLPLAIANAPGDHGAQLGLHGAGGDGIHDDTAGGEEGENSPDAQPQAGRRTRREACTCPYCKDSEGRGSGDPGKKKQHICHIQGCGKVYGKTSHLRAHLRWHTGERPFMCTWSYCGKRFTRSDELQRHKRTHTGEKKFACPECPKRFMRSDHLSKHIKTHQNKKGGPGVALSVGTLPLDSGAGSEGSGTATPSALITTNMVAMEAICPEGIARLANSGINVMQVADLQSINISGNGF

B1: IL3 promoter rs31480 T-allele (dsDNA)
DNA 1: TGCACATATAAGGCGGGAGGTTGTTGCCAACGCTTCAGAGC
DNA 2: GCTCTGAAGCGTTGGCAACAACCTCCCGCCTTATATGTGCA
B1: the binding result is recorded as “binds”.

B2: IL3 promoter rs31480 C-allele (dsDNA)
DNA 1: TGCACATATAAGGCGGGAGGCTGTTGCCAACGCTTCAGAGC
DNA 2: GCTCTGAAGCGTTGGCAACAGCCTCCCGCCTTATATGTGCA
Regarding B2, the binding result is recorded as “no binding”.
